Reference: patent US20140072613A1, “Compositions and Methods for Treating Cutaneous Scarring” (priority 2012, published 2014)

Experiments:
Experiment in all cases: cell-based or functional assay
cSRC(h) (human) = cSRC(h) (human) (UniProt P12931)
Axl(h) (human) = molecular target: T1, Axl(h) (human) (UniProt P30530)
T1 sequence (looked up): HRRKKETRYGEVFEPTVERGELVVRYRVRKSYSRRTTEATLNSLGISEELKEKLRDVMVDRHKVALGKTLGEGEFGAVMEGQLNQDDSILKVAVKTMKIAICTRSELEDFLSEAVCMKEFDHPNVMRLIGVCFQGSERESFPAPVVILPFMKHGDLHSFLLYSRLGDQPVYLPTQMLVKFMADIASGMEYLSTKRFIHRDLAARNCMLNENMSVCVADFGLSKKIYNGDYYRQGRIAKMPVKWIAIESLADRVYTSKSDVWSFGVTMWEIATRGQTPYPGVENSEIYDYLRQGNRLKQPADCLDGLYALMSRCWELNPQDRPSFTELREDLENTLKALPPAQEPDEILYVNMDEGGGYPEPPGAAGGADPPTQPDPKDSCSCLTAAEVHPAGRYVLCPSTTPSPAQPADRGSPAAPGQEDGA

Mnk2(h) (human) = Mnk2(h) (human) (UniProt Q9HBH9)
PRK2(h) (human) = PRK2(h) (human) (UniProt Q16513)
Fms(h) (human) = molecular target: T2, Fms(h) (human) (UniProt P07333)
T2 sequence (looked up): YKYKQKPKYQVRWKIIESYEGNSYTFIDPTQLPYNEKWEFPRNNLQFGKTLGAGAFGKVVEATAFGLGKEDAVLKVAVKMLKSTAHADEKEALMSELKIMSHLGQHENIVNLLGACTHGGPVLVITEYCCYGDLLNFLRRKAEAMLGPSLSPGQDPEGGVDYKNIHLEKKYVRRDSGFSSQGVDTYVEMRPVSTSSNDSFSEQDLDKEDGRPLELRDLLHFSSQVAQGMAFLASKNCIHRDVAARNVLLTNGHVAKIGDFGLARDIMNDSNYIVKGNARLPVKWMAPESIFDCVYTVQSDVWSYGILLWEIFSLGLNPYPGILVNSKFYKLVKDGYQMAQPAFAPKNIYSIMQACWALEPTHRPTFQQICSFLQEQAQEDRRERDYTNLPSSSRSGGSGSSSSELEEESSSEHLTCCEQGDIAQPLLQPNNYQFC

TSSK1(h) (human) = molecular target: T3, TSSK1(h) (human) (UniProt Q9BXA7)
T3 sequence (looked up): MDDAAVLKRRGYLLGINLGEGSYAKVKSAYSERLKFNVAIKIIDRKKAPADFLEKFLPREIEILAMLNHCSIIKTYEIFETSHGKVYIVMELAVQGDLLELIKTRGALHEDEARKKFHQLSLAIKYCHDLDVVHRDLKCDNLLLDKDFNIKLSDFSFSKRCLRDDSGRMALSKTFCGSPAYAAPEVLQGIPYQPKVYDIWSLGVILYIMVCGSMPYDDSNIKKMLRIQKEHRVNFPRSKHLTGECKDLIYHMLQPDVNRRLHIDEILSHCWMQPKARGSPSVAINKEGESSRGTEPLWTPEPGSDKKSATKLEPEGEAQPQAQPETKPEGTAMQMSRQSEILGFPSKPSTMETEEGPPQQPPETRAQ

MST3(h) (human) = MST3(h) (human) (UniProt Q9Y6E0)
WNK3(h) (human) = WNK3(h) (human) (UniProt Q9BYP7)
Ron(h) (human) = Ron(h) (human) (UniProt Q04912)
MRCKβ(h) (human) = MRCKβ(h) (human) (UniProt Q9Y5S2)
EGFR(h) (human) = EGFR(h) (human) (UniProt P00533)
CDK6/cyclinD3(h) (human) = CDK6/cyclinD3(h) (human) (UniProt Q00534)
ARK5(h) (human) = molecular target: T4, ARK5(h) (human) (UniProt O60285)
T4 sequence (looked up): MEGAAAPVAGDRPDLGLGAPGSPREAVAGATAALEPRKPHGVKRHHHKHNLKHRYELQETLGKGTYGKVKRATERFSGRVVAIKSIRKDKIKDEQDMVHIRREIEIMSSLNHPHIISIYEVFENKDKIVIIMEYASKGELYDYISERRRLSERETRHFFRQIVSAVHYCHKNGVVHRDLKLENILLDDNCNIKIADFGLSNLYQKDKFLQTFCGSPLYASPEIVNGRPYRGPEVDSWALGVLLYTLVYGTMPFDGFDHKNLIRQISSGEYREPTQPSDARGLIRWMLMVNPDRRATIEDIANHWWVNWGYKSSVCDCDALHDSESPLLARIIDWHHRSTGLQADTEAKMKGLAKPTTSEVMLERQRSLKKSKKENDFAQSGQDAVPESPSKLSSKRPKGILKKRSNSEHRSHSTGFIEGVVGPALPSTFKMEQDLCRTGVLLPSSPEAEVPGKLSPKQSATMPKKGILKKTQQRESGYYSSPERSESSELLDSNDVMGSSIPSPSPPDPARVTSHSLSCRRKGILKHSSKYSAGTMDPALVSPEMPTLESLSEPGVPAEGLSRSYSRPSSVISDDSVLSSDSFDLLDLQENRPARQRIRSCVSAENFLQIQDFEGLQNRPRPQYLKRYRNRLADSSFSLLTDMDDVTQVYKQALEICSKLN

TLK2(h) (human) = TLK2(h) (human) (UniProt Q86UE8)
PKCα(h) (human) = PKCα(h) (human) (UniProt P17252)
[1] = molecular target: CDK9/cyclin T1(h) (human) (UniProt P50750)
Pyk2 (h) (human) = Pyk2 (h) (human) (UniProt Q14289)
PrKX(h) (human) = molecular target: T5, PrKX(h) (human) (UniProt P51817)
T5 sequence (looked up): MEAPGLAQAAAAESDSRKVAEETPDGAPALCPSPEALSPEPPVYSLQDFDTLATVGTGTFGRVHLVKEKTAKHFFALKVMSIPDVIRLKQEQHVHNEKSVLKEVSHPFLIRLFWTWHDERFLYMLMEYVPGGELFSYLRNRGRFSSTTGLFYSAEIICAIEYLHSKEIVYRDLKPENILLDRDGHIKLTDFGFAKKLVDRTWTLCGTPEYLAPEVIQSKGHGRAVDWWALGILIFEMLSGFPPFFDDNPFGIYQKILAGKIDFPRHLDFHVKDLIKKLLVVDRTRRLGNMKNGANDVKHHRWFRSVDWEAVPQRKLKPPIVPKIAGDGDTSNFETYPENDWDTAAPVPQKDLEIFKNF

TLK2(h) (human), sequence (Q86UE8 whole entry): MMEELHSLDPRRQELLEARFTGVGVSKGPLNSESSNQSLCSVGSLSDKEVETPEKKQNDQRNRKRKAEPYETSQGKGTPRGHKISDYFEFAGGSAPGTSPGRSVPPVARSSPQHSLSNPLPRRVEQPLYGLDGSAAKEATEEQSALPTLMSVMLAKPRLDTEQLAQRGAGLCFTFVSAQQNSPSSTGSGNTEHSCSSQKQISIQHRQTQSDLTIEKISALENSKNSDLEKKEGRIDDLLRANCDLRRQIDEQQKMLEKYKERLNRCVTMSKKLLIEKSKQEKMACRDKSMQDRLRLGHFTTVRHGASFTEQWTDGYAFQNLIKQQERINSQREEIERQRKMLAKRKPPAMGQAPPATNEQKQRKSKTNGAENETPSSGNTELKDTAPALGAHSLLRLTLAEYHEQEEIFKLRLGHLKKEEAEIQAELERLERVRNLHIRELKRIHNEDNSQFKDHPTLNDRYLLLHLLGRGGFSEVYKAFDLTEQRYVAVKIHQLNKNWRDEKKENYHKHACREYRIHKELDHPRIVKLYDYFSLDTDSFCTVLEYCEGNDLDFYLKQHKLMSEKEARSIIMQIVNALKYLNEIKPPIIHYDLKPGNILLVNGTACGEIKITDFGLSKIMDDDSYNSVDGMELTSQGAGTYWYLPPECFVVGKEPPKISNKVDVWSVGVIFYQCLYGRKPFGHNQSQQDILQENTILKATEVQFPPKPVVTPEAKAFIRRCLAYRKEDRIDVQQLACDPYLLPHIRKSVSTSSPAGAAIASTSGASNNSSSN
Mnk2(h) (human), sequence (Q9HBH9 whole entry): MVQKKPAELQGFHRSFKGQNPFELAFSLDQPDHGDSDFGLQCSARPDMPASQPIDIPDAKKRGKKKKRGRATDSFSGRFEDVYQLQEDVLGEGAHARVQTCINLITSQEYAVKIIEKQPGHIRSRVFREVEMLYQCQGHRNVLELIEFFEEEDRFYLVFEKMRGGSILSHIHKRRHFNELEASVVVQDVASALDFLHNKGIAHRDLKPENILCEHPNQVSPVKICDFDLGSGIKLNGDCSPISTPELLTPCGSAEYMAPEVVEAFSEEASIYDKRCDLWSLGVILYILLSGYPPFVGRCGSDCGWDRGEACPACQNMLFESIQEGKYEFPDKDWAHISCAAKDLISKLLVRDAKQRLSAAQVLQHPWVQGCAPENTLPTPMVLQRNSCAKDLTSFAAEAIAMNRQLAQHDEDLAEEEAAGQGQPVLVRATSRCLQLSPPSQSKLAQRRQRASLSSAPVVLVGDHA
CDK9/cyclin T1(h) (human), sequence (P50750 whole entry, chain 1 of 2): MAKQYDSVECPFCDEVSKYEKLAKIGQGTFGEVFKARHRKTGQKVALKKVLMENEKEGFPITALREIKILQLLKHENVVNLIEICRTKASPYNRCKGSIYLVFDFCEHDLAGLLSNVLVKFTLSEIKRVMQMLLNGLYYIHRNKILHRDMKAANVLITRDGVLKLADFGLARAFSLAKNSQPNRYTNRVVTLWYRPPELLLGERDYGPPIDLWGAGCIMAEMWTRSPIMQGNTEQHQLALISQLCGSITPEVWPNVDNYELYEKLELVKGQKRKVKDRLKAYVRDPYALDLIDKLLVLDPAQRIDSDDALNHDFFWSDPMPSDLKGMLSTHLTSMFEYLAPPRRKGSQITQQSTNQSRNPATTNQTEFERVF
CDK9/cyclin T1(h) (human), sequence (O60563 whole entry, chain 2 of 2, further chain): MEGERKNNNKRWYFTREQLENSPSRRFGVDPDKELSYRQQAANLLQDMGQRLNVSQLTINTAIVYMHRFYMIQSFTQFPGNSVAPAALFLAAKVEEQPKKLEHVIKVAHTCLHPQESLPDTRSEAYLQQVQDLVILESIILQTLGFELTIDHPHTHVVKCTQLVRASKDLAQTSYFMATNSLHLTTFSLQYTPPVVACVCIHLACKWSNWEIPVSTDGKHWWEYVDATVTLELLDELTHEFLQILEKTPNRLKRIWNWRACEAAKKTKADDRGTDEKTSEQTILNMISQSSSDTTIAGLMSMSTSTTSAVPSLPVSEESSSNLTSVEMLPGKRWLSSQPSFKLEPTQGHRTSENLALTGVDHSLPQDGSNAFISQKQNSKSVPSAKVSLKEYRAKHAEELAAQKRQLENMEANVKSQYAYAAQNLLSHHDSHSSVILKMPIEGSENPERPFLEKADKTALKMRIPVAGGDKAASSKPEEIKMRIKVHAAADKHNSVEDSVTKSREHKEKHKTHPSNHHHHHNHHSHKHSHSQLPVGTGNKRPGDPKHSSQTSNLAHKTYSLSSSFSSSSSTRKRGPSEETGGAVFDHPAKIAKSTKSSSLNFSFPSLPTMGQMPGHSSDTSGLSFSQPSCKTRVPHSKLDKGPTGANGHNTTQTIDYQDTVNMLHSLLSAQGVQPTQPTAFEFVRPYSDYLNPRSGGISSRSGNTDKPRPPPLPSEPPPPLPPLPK
WNK3(h) (human), sequence (Q9BYP7 1-434 limits assumed): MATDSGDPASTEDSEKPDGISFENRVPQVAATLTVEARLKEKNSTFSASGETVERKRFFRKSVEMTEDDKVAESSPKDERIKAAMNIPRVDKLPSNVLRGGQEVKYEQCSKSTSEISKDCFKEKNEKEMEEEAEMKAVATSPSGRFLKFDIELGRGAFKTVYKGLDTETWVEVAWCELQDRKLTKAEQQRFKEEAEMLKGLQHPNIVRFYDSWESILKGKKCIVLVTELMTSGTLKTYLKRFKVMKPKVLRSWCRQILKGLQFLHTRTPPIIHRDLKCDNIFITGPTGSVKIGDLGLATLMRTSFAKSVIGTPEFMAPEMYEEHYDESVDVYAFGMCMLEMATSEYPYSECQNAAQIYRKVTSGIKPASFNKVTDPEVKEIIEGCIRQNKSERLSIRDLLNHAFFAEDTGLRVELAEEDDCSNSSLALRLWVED
Ron(h) (human), sequence (Q04912 983-1400 limits assumed): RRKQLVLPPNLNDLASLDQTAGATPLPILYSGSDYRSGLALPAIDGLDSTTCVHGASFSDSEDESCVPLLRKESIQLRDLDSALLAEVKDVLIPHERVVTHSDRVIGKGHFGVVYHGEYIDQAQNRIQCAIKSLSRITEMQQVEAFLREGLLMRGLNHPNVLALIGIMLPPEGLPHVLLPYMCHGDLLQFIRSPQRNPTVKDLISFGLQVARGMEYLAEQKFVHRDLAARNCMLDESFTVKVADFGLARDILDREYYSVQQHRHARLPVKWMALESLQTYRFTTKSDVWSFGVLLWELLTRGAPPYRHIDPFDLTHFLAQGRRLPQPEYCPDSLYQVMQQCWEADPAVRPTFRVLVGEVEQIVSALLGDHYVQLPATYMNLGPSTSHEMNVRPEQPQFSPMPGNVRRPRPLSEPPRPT
PRK2(h) (human), sequence (Q16513 501-984 limits assumed): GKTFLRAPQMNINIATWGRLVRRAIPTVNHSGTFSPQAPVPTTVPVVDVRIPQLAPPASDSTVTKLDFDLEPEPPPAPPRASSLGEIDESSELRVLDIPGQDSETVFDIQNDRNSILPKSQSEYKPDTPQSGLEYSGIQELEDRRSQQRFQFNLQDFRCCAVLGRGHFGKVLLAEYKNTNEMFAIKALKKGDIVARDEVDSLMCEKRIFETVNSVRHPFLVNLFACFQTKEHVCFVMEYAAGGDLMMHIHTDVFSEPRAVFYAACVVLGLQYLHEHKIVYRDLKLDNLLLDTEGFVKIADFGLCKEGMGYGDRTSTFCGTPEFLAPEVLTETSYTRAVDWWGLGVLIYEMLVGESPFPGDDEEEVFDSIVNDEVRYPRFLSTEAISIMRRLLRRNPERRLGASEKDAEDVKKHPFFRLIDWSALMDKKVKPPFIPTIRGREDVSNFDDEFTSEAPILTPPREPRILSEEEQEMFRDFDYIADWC
MST3(h) (human), sequence (Q9Y6E0 whole entry): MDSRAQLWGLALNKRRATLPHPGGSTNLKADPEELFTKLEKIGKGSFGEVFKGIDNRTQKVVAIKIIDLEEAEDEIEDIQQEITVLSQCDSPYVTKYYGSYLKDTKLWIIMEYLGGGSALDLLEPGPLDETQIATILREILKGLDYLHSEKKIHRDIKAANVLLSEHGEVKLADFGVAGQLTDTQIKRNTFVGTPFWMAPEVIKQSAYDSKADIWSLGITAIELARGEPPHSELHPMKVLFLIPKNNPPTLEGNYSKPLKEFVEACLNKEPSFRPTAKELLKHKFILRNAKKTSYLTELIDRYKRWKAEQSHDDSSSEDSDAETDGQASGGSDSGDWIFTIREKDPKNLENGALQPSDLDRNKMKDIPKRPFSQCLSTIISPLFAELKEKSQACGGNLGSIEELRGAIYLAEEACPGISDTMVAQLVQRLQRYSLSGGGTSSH
MRCKβ(h) (human), sequence (Q9Y5S2 1-473 limits assumed): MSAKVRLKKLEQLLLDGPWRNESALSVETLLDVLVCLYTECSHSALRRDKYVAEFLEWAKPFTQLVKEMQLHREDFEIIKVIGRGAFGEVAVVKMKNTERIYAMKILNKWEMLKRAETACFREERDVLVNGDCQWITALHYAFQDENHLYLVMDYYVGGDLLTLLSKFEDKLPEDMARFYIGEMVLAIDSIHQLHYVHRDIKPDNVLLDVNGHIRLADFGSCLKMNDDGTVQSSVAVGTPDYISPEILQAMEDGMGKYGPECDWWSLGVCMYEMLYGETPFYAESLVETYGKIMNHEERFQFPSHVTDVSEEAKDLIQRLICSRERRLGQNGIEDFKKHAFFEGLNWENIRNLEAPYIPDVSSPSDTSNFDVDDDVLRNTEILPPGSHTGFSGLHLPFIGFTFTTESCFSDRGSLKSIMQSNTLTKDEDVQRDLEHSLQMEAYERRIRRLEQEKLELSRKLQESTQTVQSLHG

% activity, 100 µM (cSRC(h) (human)): 30%
% activity, 100 µM (Axl(h) (human)): 12%
% activity, 100 µM (Mnk2(h) (human)): 6%
% activity, 100 µM (PRK2(h) (human)): 7%
% activity, 100 µM (Fms(h) (human)): 14%
% activity, 100 µM (TSSK1(h) (human)): 46%
% activity, 100 µM (MST3(h) (human)): 4%
% activity, 100 µM (WNK3(h) (human)): 9%
% activity, 100 µM (Ron(h) (human)): 46%
% activity, 100 µM (MRCKβ(h) (human)): -10%
% activity, 100 µM (EGFR(h) (human)): -1%
% activity, 100 µM (CDK6/cyclinD3(h) (human)): 23%
% activity, 100 µM (ARK5(h) (human)): 20%
% activity, 100 µM (TLK2(h) (human)): 133%
% activity, 100 µM (PKCα(h) (human)): 3%
% activity, 100 µM [1]: 6%
% activity, 100 µM (Pyk2 (h) (human)): 46%
% activity, 100 µM (PrKX(h) (human)): 57%
Substance: MMI-0500 (peptide)
